Assay results taken from paper PMC7760338, “One Step Closer to Clinical Translation: Enhanced Tumor Targeting of [^99mTc]Tc-DB4 and [^111In]In-SG4 in Mice Treated with Entresto” (Pharmaceutics, 2020).
Non-standard residues stand in square brackets, D forms with d. Residues, ends and D or L forms follow the SMILES beside them. *: point of attachment. DOTA = O=C(O)CN1CCN(CC(=O)O)CCN(CC(=O)*)CCN(CC(=O)O)CC1; Nle = CCCC[C@H](N)C(=O)O

Legend:
[1] = tested on: A431-CCK2R(+) tumor-bearing mice; conditions: 4 h after injection
Procedure: Five mice bearing A431-CCK2R(+) xenografts on their shoulders were used for SPECT/CT imaging. Three out of five mice received Entresto by gavage 30 min prior to radiotracer injection. All five animals were injected with a bolus containing [^111In]In-SG4 (100 μL, 5 MBq of HPLC isolated preparation) via the tail vein and were euthanized 4 h later. […] The SPECT system was based on monolithic NaI detectors attached to SiPMs, with a 0.6 mm intrinsic resolution. The CT system was based on a structured CMOS detector of CsI with pixels of 75 µm and operated between 35 and 80 kVp, 10–500 µA tube current, with a 33 µm fixed focal spot size. For SPECT scans, a 60 min duration protocol was applied, based on the injected activity. A CT scan followed after each SPECT scan, according to a General Purpose protocol under 50 kVp for co-registration purposes. The MLEM reconstruction method was applied for the reconstruction of SPECT images with a 250 µm voxel size and 500 iterations. The ISRA reconstruction method with a 100 µm voxel size was applied for the reconstruction of CT images. Images were exported and post-processed on VivoQuant software, version 4.0 (Invicro, Boston, MA, USA). A smoothing median filter (0.6 mm, spherical window) was applied to the images and for consistency purposes, the bladder was removed.

[2] = tested on: SCID mice bearing double A431-CCK2R(+/−) xenografts (CCK2R); assay: in vivo; conditions: SCID mice with double A431-CCK2R(+/−) xenografts, 4 h pi, 50 kBq/10 pmol peptide iv, γ-counter, mean ± SD, n = 4; for Biodistribution, Stomach: stomach emptied of contents; for Biodistribution, Intestines: intestines not emptied
Procedure: (§1) Inocula of A431-CCK2R(+) and A431-CCK2R(−) cells (1.5 × 10^7 cells and 1.2 × 10^7 cells respectively, in 150 µL normal saline) were subcutaneously injected in the right and left flanks respectively, of 12 male SCID mice; in 5 more mice, a A431-CCK2R(+) cell suspension (1.5 × 10^7 cells in 150 µL normal saline) was subcutaneously injected instead on the neck of the animals. […] All animals were kept under aseptic conditions during this period and until biodistribution or imaging was conducted.
(§2) For the biodistribution study, animals in groups of 4 received a 100 μL bolus of [^99mTc]Tc-DB4 via the tail vein (200 kBq, corresponding to 10 pmol total peptide in saline/EtOH 9/1 v/v—GRPR-tumor-bearing mice) or [^111In]In-SG4 (50 kBq, 10 pmol total peptide—twin A431-CCK2R(+)/A431-CCK2R(−) tumor-bearing mice) co-injected either with injection solution (100 μL; control) or with LBQ657 solution (100 µL injection solution containing 10 µg LBQ657). In additional sets of animals, mice received, by gavage, a single Entresto dose (12 mg/[…] per animal, prepared as described in Section 2.1.1) 30 min prior to injection of the respective radiotracer together with vehicle (100 μL; Entresto group), or with a [Tyr^4]BBN solution (100 μg in 100 μL vehicle; block group). Mice were euthanized at 4 h pi and dissected. Samples of blood, tumors and organs of interest were collected, weighed and measured for radioactivity in the γ-counter (an automated well-type gamma counter with a NaI(Tl) 3′’ crystal, Canberra Packard Auto-Gamma 5000 series instrument). Intestines and stomach were not emptied of their contents; exceptionally, in the case of [^111In]In-SG4-injected animals, stomachs were emptied of their contents. Data was calculated as percent injected activity per gram tissue (%IA/g) with the aid of standard solutions and represented as mean values ± standard deviation (SD), n = 4.

in vivo = conditions: male, SCID, mouse, iv, 10 pmol, total radioactivity
Procedure: as §1, §2

[3] = Entresto: 12 mg/200 mL by gavage 30 min before, co-injected with vehicle
[4] = LBQ657: co-injected with 10 µg LBQ657

SMILES: CCCC[C@H](NC(=O)[C@H](Cc1c[nH]c2ccccc12)NC(=O)CNC(=O)[C@H](Cc1ccc(O)cc1)NC(=O)[C@H](C)NC(=O)[C@@H](CCC(=O)O)NC(=O)CN1CCN(CC(=O)O)CCN(CC(=O)O)CCN(CC(=O)O)CC1)C(=O)N[C@@H](CC(=O)O)C(=O)N[C@@H](Cc1ccccc1)C(N)=O [[^111In]In-SG4, metal not drawn] ({DOTA}-[dE]AYGW[Nle]DF-NH2)
- change of tumor uptake on SPECT/CT, Entresto-treated vs controls ([1]; Entresto orally 30 min in advance (3 mice) vs controls (2 mice), A431-CCK2R(+) tumors, 5 MBq iv): notable increase in the tumor uptake
- accumulation in A431-CCK2R(+) xenografts on SPECT/CT images ([1]; SCID mice bearing A431-CCK2R(+) tumors, 5 MBq HPLC-isolated iv, five mice): Significant accumulation
- Biodistribution, Stomach ([2]; Controls: co-injected with vehicle): 1.29 ± 0.25 %IA/g
- Biodistribution, Femur [2, 3]: 0.14 ± 0.03 %IA/g
- Biodistribution, Kidneys [2, 3]: 2.40 ± 0.61 %IA/g
- Biodistribution, Pancreas [2, 3]: 0.34 ± 0.14 %IA/g
- Biodistribution, Spleen [2, 3]: 0.22 ± 0.05 %IA/g
- Biodistribution, Tumor (+) (A431-CCK2R(+)) [2, 3]: 9.61 ± 1.70 %IA/g
- Biodistribution, Tumor (–) (A431-CCK2R(−)) [2, 3]: 0.40 ± 0.23 %IA/g
- Biodistribution, Intestines [2, 3]: 0.34 ± 0.07 %IA/g
- Biodistribution, Stomach [2, 3]: 2.86 ± 0.53 %IA/g
- Biodistribution, Intestines [2, 4]: 0.49 ± 0.12 %IA/g
- Biodistribution, Stomach [2, 4]: 3.10 ± 0.41 %IA/g
- tissue uptake at 4 h (in vivo; A431-CCK2R(+) tumor): 3.07 ± 0.87 %ID/g
- tissue uptake at 4 h (in vivo; A431-CCK2R(−) tumor): 0.28 ± 0.21 %ID/g
- tissue uptake at 4 h (in vivo; blood): 0.03 ± 0.02 %ID/g
- tissue uptake at 4 h (in vivo; femur): 0.1 ± 0.03 %ID/g
- tissue uptake at 4 h (in vivo; heart): 0.05 ± 0.02 %ID/g
- tissue uptake at 4 h (in vivo; kidneys): 2.1 ± 0.49 %ID/g
- tissue uptake at 4 h (in vivo; liver): 0.15 ± 0.02 %ID/g
- tissue uptake at 4 h (in vivo; lungs): 0.06 ± 0.01 %ID/g
- tissue uptake at 4 h (in vivo; muscle): 0.03 ± 0.02 %ID/g
- tissue uptake at 4 h (in vivo; pancreas): 0.08 ± 0.09 %ID/g
- tissue uptake at 4 h (in vivo; spleen): 0.11 ± 0.04 %ID/g
